The text below walks through data of patent publication US20240376226A1 (JANUX THERAPEUTICS, published 2024).

Some results are limits rather than exact numbers.

The target in the experiment is T1, CD3 (UniProt P07766 23-126).
T1 construct: also called CD3-biotin; CD3 biotin
Kind of experiment: ELISA, antibody titrated on captured antigen.

T1 sequence (P07766 23-126): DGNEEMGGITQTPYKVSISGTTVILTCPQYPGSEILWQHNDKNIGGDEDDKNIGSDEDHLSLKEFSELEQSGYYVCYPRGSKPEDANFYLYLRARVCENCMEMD

B1: SP34 (Ab-9, Ab-10) (antibody, mouse IgG1, V domains shown)
VH: EVQLVESGGGLVQPKGSLKLSCAASGFTFNTYAMNWVRQAPGKGLEWVARIRSKYNNYATYYADSVKDRFTISRDDSQSILYLQMNNLKTEDTAMYYCVRHGNFGNSYVSWFAYWGQGTLVTVSS
VL: QAVVTQESALTTSPGETVTLTCRSSTGAVTTSNYANWVQEKPDHLFTGLIGGTNKRAPGVPARFSGSLIGDKAALTITGAQTEDEAIYFCALWYSNLWVFGGGTKLTVLQ
notes: used naked or chemically biotinylated; also called SP34-biotin
B1 yielded an EC50 of less than 1 nM.
